Reference: patent publication US20170022281A1 (AbbVie / Abbott, published 2017)

T1: human PRLR (Biacore antigen) (human, UniProt P16471 25-234, limits assumed)
T1 construct: The construct injected over captured antibody is not described (a soluble form is likely); also called huPRLR
T1 sequence: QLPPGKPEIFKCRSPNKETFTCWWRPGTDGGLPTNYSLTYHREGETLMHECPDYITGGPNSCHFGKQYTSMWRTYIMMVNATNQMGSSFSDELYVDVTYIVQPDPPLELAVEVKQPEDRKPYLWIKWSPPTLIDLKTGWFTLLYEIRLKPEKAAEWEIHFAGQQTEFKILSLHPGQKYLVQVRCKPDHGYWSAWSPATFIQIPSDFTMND

T2: human PRLR on cells (human, UniProt P16471 25-622)
T2 sequence: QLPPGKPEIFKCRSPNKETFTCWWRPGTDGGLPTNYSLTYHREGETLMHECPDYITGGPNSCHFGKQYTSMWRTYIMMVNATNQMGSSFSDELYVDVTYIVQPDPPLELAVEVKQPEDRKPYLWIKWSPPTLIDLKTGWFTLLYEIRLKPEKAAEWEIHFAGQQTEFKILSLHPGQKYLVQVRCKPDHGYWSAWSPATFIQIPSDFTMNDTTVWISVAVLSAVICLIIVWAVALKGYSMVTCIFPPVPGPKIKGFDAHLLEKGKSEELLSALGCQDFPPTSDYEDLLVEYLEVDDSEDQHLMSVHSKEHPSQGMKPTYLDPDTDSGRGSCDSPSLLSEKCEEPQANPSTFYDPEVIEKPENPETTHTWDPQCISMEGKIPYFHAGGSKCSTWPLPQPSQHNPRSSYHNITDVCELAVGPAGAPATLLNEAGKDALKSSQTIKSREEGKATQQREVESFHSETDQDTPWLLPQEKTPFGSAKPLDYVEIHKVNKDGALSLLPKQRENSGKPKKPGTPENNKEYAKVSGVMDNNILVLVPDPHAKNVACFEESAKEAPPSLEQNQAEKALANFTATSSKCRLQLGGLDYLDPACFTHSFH

T3: mouse PRLR on Baf3-mPRLR cells (mouse, UniProt Q08501 20-608)
T3 sequence (looked up): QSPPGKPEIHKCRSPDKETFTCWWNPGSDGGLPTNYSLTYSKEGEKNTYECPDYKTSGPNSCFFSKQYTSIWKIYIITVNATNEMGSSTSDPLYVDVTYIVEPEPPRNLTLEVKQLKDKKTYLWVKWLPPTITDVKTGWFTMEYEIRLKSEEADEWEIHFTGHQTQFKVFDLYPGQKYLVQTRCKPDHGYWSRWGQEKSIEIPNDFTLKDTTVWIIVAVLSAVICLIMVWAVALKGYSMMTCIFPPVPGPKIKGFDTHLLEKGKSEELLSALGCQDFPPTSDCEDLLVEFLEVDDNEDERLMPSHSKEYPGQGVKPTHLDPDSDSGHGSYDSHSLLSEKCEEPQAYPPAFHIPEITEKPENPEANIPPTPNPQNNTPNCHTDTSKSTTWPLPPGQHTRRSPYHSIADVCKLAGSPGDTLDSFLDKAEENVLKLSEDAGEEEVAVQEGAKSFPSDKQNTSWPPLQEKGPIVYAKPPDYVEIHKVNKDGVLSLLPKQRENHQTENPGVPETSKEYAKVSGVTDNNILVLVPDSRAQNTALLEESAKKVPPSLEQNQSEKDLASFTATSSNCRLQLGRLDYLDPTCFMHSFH


How the values were obtained:
[1] = target: T1, human PRLR (Biacore antigen); experiment: SPR simultaneous binding; PRLR held by surface mAb chAb8
Description: (§1) Running buffer was HBS-EP+ (10 mM Hepes, pH7.4, 150 mM NaCl, 3 mM EDTA, 0.05% surfactant). Assay was performed at 12° C. using Biacore T200 and CM5 sensor chips with anti-human IgG (Pierce) amine-coupled in all 4 flow cells to ˜2000 RU.
(§2) Separate test mAbs were captured in flowcells 2, 3 & 4 (flowcell 1 was reference, no test mAb). All 4 flowcells were then blocked by injection with isotype control mAb at 50 ug/ml. All 4 flowcells were then injected with antigen or buffer only (buffer only is for double referencing, done for each mAb pair individually). All 4 flowcells were then injected with 2nd test mAb at 10 ug/ml. All 4 flowcells were then regenerated with glycine, pH1.5.

[2] = target: T1, human PRLR (Biacore antigen); experiment: SPR simultaneous binding; PRLR held by surface mAb Ab19
Description: as §1, §2

[3] = target: T1, human PRLR (Biacore antigen); experiment: SPR simultaneous binding; PRLR held by surface mAb Ab40
Description: as §1, §2

[4] = target: T2, human PRLR on cells; experiment: cell-based or functional assay
[5] = target: cyno PRLR on Baf3-cyPRLR cells (cyno); experiment: cell-based or functional assay
[6] = target: T1, human PRLR (Biacore antigen); experiment: SPR simultaneous binding; PRLR held by surface mAb LFA102
Description: as §1, §2

[7] = target: T1, human PRLR (Biacore antigen); experiment: SPR simultaneous binding; PRLR held by surface mAb Ab39
Description: as §1, §2

[8] = target: T1, human PRLR (Biacore antigen); experiment: SPR simultaneous binding; PRLR held by surface mAb chAb6
Description: as §1, §2

[9] = target: T1, human PRLR (Biacore antigen); experiment: SPR simultaneous binding; PRLR held by surface mAb chAb5
Description: as §1, §2

[10] = target: T1, human PRLR (Biacore antigen); experiment: SPR simultaneous binding; PRLR held by surface mAb chAb7
Description: as §1, §2

[11] = target: T1, human PRLR (Biacore antigen); experiment: SPR simultaneous binding; PRLR held by surface mAb Ab21
Description: as §1, §2

[12] = target: T3, mouse PRLR on Baf3-mPRLR cells; experiment: cell-based or functional assay

Row | Binder | solution mAb binding, % of PRLR binding [1] | solution mAb binding, % of PRLR binding [2] | solution mAb binding, % of PRLR binding [3] | Baf3-hPRLR proliferation IC50 [4] | Baf3-cyPRLR proliferation IC50 [5] | solution mAb binding, % of PRLR binding [6] | solution mAb binding, % of PRLR binding [7] | solution mAb binding, % of PRLR binding [8] | solution mAb binding, % of PRLR binding [9] | solution mAb binding, % of PRLR binding [10] | solution mAb binding, % of PRLR binding [11] | Baf3-mPRLR proliferation IC50 [12]
1 | chAb8 (antibody, human IgG1, kappa, V domains shown, chimeric, murine variable and human G1/kappa constant regions) VH: EVQLQQSGPELVKPGASVKISCKASGYTFTDYNIHWVKQSHGKSLEWIGYIYPNNDGTGYNQKFKSKATLTVDNSSSTAYMEVRSLTSEDSAVYYCARGDGNYVGDMDYWGQGTSVTVSS VL: DIQMTQSPASLSASVGETVTITCRASENIYSYLAWYQQKQGKPPQLLVYNAKTLAEGVPSRFSGGGSGTQFSLKINSLQPEDFGSYYCQHHYATPFTFGSGTKLEIKT | -1% | -1% | -2% | 0.3 µg/mL | 2.94 µg/mL | -2% | -2% | -1% | 0% | 0% | -1% | 
2 | Ab49 (antibody, human IgG1, kappa, V domains shown, humanized from Ab8; G1; also called Ab3 HC.1a and Ab3 LC.1b) VH: EVQLVQSGAEVKKPGASVKVSCKASGYTFTDYNIHWVRQAPGQGLEWIGYIYPNNDGTGYNQKFKSRATLTVDNSTSTAYMELRSLRSDDTAVYYCARGDGNYVGDMDYWGQGTTVTVSS VL: DIQMTQSPSSLSASVGDRVTITCRASENIYSYLAWYQQKPGKAPKLLVYNAKTLAEGVPSRFSGSGSGTDFTLTISSLQPEDFATYYCQHHYATPFTFGQGTKLEIKR | -1% | -1% | -3% | 0.37 µg/mL | 3.49 µg/mL | -2% | -2% | -2% | 0% | 0% | -1% | > 30 µg/mL
3 | Ab39 (antibody, human IgG1, kappa, V domains shown, humanized from Ab7; G1; also called Ab4 HC.1a and Ab4 LC.1a) VH: EVQLVQSGAEVKKPGSSVKVSCKASGYTFTSYWIHWVRQAPGQGLEWIGEIDPSDSYTNYNQKFKGRATLTVDKSSSTAYMELSSLRSEDTAVYYCARSFFTNWFAYWGQGTLVTVSS VL: DVVMTQTPLSLSVTPGQPASISCRSSQSLVHSNGNTYLHWYLQKPGQSPQLLIYKVSNRFSGVPDRFSGSGSGTDFTLKISRVEAEDVGVYFCSQSTHVPFTFGGGTKVEIKR | 1% | -1% | -2% | 0.27 µg/mL | 0.25 µg/mL | 92% | -2% | 0% | 0% | 1% | -1% | > 30 µg/mL
4 | Ab40 (antibody, human IgG1, kappa, humanized from Ab7; G1; also called Ab4 HC.1a and Ab4 LC.1b) heavy: not shown light: DVVMTQTPLSLSVTPGQPASISCRSSQSLVHSNGNTYLHWYLQKPGQSPQLLIYKVSNRFSGVPDRFSGSGSGTDFTLKISRVEAEDVGVYYCSQSTHVPFTFGGGTKVEIKRTVAAPSVFIFPPSDEQLKSGTASVVCLLNNFYPREAKVQWKVDNALQSGNSQESVTEQDSKDSTYSLSSTLTLSKADYEKHKVYACEVTHQGLSSPVTKSFNRGEC | 0% | -1% | -2% | 0.4 µg/mL | 0.32 µg/mL | 35% | -2% | -1% | 0% | 1% | -1% | > 30 µg/mL
